From US20140274782A1, “AFFINITY REAGENTS AND METHODS FOR DETECTION, PURIFICATION, AND PROTEOMIC ANALYSIS OF METHYLATED PROTEINS” (The Board of Trustees of the Leland Stanford Junior …, priority 2013, published 2014) come the findings set out here.

The target in experiment [1] is T1, G9a and GLP (Homo sapiens, UniProt Q96KQ7+Q9H9B1).
T1 sequence (Q96KQ7 2-1210 limits assumed): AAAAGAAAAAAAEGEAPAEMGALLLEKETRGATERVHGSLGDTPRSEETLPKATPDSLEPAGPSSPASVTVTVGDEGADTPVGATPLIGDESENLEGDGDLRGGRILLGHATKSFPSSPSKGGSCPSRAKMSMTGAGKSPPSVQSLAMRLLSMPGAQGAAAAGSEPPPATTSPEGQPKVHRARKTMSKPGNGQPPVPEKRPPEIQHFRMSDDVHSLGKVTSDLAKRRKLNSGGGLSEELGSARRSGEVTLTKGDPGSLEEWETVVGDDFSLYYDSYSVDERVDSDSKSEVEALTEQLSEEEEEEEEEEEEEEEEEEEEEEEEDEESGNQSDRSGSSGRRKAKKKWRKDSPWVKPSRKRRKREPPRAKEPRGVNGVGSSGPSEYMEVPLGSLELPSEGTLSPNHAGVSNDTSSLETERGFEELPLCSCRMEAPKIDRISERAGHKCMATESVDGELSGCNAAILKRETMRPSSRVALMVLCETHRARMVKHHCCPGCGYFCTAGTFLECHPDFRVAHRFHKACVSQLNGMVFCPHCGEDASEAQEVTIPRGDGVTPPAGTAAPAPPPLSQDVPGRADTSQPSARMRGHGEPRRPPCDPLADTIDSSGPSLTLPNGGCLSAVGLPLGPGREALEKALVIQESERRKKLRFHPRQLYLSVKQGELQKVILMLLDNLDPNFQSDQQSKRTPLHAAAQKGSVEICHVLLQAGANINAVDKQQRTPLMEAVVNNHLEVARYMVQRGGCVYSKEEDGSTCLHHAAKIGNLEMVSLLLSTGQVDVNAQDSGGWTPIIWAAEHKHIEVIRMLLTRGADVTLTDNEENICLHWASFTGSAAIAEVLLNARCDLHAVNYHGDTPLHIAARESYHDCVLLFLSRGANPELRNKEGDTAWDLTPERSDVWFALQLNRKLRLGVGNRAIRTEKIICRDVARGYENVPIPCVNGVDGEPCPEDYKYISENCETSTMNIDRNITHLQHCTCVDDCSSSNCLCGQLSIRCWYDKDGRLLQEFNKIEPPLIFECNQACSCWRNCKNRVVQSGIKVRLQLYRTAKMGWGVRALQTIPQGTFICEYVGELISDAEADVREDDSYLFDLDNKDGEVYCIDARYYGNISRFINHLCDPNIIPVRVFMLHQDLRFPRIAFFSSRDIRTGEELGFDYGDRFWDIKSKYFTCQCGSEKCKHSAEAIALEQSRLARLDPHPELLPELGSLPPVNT
T1 sequence (Q9H9B1 2-1298 limits assumed): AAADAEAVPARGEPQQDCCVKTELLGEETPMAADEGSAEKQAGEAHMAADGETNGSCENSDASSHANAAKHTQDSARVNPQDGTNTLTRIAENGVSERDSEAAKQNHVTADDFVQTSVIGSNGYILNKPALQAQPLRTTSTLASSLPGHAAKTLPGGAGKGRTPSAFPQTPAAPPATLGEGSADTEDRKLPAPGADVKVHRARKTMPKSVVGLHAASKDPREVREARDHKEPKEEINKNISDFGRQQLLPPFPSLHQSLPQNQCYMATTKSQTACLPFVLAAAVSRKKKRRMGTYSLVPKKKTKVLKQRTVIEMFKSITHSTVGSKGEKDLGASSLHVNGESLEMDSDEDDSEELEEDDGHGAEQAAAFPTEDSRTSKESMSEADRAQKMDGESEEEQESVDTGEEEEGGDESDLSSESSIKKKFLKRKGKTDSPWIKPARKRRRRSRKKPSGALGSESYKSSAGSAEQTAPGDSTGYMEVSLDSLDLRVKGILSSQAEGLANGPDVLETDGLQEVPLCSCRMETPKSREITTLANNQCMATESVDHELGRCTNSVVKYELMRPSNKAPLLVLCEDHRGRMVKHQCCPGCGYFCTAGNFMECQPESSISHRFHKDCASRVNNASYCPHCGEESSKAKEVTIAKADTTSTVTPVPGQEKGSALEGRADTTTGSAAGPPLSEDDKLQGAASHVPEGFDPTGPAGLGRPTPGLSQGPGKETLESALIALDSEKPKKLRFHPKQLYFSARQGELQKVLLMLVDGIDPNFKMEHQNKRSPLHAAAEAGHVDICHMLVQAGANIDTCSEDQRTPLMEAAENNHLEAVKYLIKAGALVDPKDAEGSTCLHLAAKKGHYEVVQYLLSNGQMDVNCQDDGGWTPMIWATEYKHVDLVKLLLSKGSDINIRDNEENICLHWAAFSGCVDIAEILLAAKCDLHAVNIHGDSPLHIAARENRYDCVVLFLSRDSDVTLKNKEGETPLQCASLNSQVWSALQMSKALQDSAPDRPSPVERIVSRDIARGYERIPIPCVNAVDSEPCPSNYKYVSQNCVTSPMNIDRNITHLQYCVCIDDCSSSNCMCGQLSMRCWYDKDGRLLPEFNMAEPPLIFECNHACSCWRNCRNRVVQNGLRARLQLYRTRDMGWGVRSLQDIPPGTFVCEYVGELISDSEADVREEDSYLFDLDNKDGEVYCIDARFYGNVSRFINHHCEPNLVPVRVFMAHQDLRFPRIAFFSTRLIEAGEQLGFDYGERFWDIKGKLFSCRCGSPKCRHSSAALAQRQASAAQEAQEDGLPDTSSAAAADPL
Nature of the experiment: Triple SILAC pull-down after UNC0638 treatment of 293T cells, DMSO/UNC0638 ratio of protein captured by 3×MBT.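 For all read-outs here: mass spectrometry (Q-Exactive) SILAC quantitation, DMSO/UNC0638 ratio computed after subtracting 3×MBTD355N mutant pull-down background, only proteins with at least twofold 3×MBT over mutant signal considered.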 Format: cell-based. Also noted: endogenous in cells; host or cells: HEK 293T. Conditions: for Relative to UNC0638 UNC Heavy / Relative to UNC0638 UNC Light: SILAC ratio DMSO/UNC0638 of protein pulled down with 3xMBT; for Relative to UNC0638 UNC Heavy: UNC0638 in heavy SILAC media; for Relative to UNC0638 UNC Light: UNC0638 in light SILAC media; for Relative to UNC0638 Average: average of UNC Light and UNC Heavy experiments.

The subject of experiment [2] is 3×MBT domain of L3MBTL1. Nature of the experiment: Triple SILAC pull-down, 3xMBT/3xMBTD355N ratio (cytoplasmic, nuclear and chromatin fractions of 293T cells).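 For all read-outs here: proteins quantified with MaxQuant, requiring at least two unique peptides and quantification in both label directions, normalized to the mean of proteins from a digested loading control.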 Conditions: SILAC ratio, pull-down 3xMBT vs 3xMBTD355N; for 3xMBT/D355N UNC Heavy: experiment with UNC0638 in heavy SILAC media; for 3xMBT/D355N UNC Light: experiment with UNC0638 in light SILAC media. The format is binding, human.

B1: ZC3HAV1L (protein, UniProt Q96H79 2-300, looked up)
Zinc finger CCCH-type …: AEPTVCSFLTKVLCAHGGRMFLKDLRGHVELSEARLRDVLQRAGPERFLLQEVETQEGLGDAEAEAAAGAVGGGGTSAWRVVAVSSVRLCARYQRGECQACDQLHFCRRHMLGKCPNRDCWSTCTLSHDIHTPVNMQVLKSHGLFGLNENQLRILLLQNDPCLLPEVCLLYNKGEALYGYCNLKDKCNKFHVCKSFVKGECKLQTCKRSHQLIHAASLKLLQDQGLNIPSVVNFQIISTYKHMKLHKMLENTDNSSPSTEHSQGLEKQGVHAAGAAEAGPLASVPAQSAKKPCPVSCEK
Take B1: in experiment [1], the “Relative to UNC0638 UNC Heavy” value worked out at 0.14 log base 2, the “Relative to UNC0638 UNC Light” value is recorded as 0.16 log base 2 and the “Relative to UNC0638 Average” value is recorded as 0.15 log base 2. Further, in experiment [2], the “3xMBT/D355N UNC Heavy” value was found to be 1.71 log base 2 and the “3xMBT/D355N UNC Light” value turned out to be 2.00 log base 2.

B2: SNRPA1 (protein, UniProt P09661 2-255, looked up)
U2 small nuclear …: VKLTAELIEQAAQYTNAVRDRELDLRGYKIPVIENLGATLDQFDAIDFSDNEIRKLDGFPLLRRLKTLLVNNNRICRIGEGLDQALPCLTELILTNNSLVELGDLDPLASLKSLTYLSILRNPVTNKKHYRLYVIYKVPQVRVLDFQKVKLKERQEAEKMFKGKRGAQLAKDIARRSKTFNPGAGLPTDKKKGGPSPGDVEAIKNAIANASTLAEVERLKGLLQSGQIPGRERRSGPTDDGEEEMEEDTVTNGS
As for B2, in experiment [1], the “Relative to UNC0638 UNC Heavy” value worked out at 0.08 log base 2, the “Relative to UNC0638 UNC Light” value came to 0.22 log base 2 and the “Relative to UNC0638 Average” value stood at 0.15 log base 2. Moreover, in experiment [2], the “3xMBT/D355N UNC Heavy” value was determined as 2.94 log base 2 and the “3xMBT/D355N UNC Light” value is 3.39 log base 2.

B3: RBM26 (protein, UniProt Q5T8P6 1-1007, looked up)
RNA-binding protein 26: MVSKMIIENFEALKSWLSKTLEPICDADPSALAKYVLALVKKDKSEKELKALCIDQLDVFLQKETQIFVEKLFDAVNTKSYLPPPEQPSSGSLKVEFFPHQEKDIKKEEITKEEEREKKFSRRLNHSPPQSSSRYRENRSRDERKKDDRSRKRDYDRNPPRRDSYRDRYNRRRGRSRSYSRSRSRSWSKERLRERDRDRSRTRSRSRTRSRERDLVKPKYDLDRTDPLENNYTPVSSVPSISSGHYPVPTLSSTITVIAPTHHGNNTTESWSEFHEDQVDHNSYVRPPMPKKRCRDYDEKGFCMRGDMCPFDHGSDPVVVEDVNLPGMLPFPAQPPVVEGPPPPGLPPPPPILTPPPVNLRPPVPPPGPLPPSLPPVTGPPPPLPPLQPSGMDAPPNSATSSVPTVVTTGIHHQPPPAPPSLFTADTYDTDGYNPEAPSITNTSRPMYRHRVHAQRPNLIGLTSGDMDLPPREKPPNKSSMRIVVDSESRKRTIGSGEPGVPTKKTWFDKPNFNRTNSPGFQKKVQFGNENTKLELRKVPPELNNISKLNEHFSRFGTLVNLQVAYNGDPEGALIQFATYEEAKKAISSTEAVLNNRFIKVYWHREGSTQQLQTTSPKVMQPLVQQPILPVVKQSVKERLGPVPSSTIEPAEAQSASSDLPQNVTKLSVKDRLGFVSKPSVSATEKVLSTSTGLTKTVYNPAALKAAQKTLLVSTSAVDNNEAQKKKQEALKLQQDVRKRKQEILEKHIETQKMLISKLEKNKTMKSEDKAEIMKTLEVLTKNITKLKDEVKAASPGRCLPKSIKTKTQMQKELLDTELDLYKKMQAGEEVTELRRKYTELQLEAAKRGILSSGRGRGIHSRGRGAVHGRGRGRGRGRGVPGHAVVDHRPRALEISAFTESDREDLLPHFAQYGEIEDCQIDDSSLHAVITFKTRAEAEAAAVHGARFKGQDLKLAWNKPVTNISAVETEEVEPDEEEFQEESLVDDSLLQDDDEEEEDNESRSWRR
With B3, in experiment [1], the “Relative to UNC0638 UNC Heavy” value is 0.21 log base 2, the “Relative to UNC0638 UNC Light” value is on record as 0.08 log base 2 and the “Relative to UNC0638 Average” value is reported as 0.14 log base 2. Further, in experiment [2], the “3xMBT/D355N UNC Heavy” value came out at 2.44 log base 2 and the “3xMBT/D355N UNC Light” value is given as 2.00 log base 2.

B4: C22orf28 (protein, UniProt Q9Y3I0 1-505, looked up)
RNA-splicing ligase RtcB …: MSRSYNDELQFLEKINKNCWRIKKGFVPNMQVEGVFYVNDALEKLMFEELRNACRGGGVGGFLPAMKQIGNVAALPGIVHRSIGLPDVHSGYGFAIGNMAAFDMNDPEAVVSPGGVGFDINCGVRLLRTNLDESDVQPVKEQLAQAMFDHIPVGVGSKGVIPMNAKDLEEALEMGVDWSLREGYAWAEDKEHCEEYGRMLQADPNKVSARAKKRGLPQLGTLGAGNHYAEIQVVDEIFNEYAAKKMGIDHKGQVCVMIHSGSRGLGHQVATDALVAMEKAMKRDKIIVNDRQLACARIASPEGQDYLKGMAAAGNYAWVNRSSMTFLTRQAFAKVFNTTPDDLDLHVIYDVSHNIAKVEQHVVDGKERTLLVHRKGSTRAFPPHHPLIAVDYQLTGQPVLIGGTMGTCSYVLTGTEQGMTETFGTTCHGAGRALSRAKSRRNLDFQDVLDKLADMGIAIRVASPKLVMEEAPESYKNVTDVVNTCHDAGISKKAIKLRPIAVIKG
For B4, in experiment [1], the “Relative to UNC0638 UNC Heavy” value turned out to be 0.08 log base 2, the “Relative to UNC0638 UNC Light” value came out at 0.22 log base 2 and the “Relative to UNC0638 Average” value turned out to be 0.15 log base 2. For the same molecule, in experiment [2], the “3xMBT/D355N UNC Heavy” value was found to be 2.49 log base 2 and the “3xMBT/D355N UNC Light” value was determined as 2.67 log base 2.

B5: EIF4E2 (protein, UniProt O60573 1-245, looked up)
Eukaryotic translation …: MNNKFDALKDDDSGDHDQNEENSTQKDGEKEKTERDKNQSSSKRKAVVPGPAEHPLQYNYTFWYSRRTPGRPTSSQSYEQNIKQIGTFASVEQFWRFYSHMVRPGDLTGHSDFHLFKEGIKPMWEDDANKNGGKWIIRLRKGLASRCWENLILAMLGEQFMVGEEICGAVVSVRFQEDIISIWNKTASDQATTARIRDTLRRVLNLPPNTIMEYKTHTDSIKMPGRLGPQRLLFQNLWKPRLNVP
Turning to B5, in experiment [1], the “Relative to UNC0638 UNC Heavy” value came out at 0.24 log base 2, the “Relative to UNC0638 UNC Light” value is reported as 0.06 log base 2 and the “Relative to UNC0638 Average” value amounted to 0.15 log base 2. In experiment [2], the “3xMBT/D355N UNC Heavy” value was determined as 1.89 log base 2 and the “3xMBT/D355N UNC Light” value turned out to be 2.26 log base 2.
